Experimental data published in patent US20250115680A1 (PROFOUNDBIO US, published 2025).

T1: human PTK7 on the surface of PTK7-expressing tumor cell lines (human, UniProt Q13308 31-1070)
T1 construct: whole, on cells
T1 sequence (looked up): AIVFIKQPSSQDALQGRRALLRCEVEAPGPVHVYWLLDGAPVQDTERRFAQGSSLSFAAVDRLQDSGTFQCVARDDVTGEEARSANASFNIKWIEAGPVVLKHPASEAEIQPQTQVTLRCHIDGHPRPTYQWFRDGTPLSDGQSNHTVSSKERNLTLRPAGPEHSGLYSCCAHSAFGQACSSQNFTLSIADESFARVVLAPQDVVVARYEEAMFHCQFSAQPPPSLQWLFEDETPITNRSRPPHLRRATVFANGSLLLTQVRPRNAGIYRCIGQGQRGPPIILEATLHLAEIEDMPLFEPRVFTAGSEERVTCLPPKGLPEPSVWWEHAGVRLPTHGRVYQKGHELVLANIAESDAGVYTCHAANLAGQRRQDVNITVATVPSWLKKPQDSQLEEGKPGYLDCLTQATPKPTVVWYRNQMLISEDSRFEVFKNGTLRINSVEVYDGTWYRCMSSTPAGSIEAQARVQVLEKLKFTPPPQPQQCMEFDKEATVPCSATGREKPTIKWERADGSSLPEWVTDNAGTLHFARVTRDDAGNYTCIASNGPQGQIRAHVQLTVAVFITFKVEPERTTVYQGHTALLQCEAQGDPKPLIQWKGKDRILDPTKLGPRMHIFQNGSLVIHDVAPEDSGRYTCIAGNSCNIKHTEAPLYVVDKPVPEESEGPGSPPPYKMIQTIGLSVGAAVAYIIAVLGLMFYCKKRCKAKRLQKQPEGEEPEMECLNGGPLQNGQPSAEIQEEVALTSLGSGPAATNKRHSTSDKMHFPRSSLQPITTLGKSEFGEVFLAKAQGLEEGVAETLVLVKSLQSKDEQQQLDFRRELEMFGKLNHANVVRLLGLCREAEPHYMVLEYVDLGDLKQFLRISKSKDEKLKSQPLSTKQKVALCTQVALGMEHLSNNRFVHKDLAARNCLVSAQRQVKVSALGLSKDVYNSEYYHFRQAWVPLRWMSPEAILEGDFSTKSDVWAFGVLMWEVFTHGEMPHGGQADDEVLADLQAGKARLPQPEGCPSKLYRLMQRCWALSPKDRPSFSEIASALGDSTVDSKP

T2: human PTK-7 recombinant protein (human, UniProt Q13308 31-704, limits assumed)
T2 construct: also called human PTK7 protein
T2 sequence (looked up): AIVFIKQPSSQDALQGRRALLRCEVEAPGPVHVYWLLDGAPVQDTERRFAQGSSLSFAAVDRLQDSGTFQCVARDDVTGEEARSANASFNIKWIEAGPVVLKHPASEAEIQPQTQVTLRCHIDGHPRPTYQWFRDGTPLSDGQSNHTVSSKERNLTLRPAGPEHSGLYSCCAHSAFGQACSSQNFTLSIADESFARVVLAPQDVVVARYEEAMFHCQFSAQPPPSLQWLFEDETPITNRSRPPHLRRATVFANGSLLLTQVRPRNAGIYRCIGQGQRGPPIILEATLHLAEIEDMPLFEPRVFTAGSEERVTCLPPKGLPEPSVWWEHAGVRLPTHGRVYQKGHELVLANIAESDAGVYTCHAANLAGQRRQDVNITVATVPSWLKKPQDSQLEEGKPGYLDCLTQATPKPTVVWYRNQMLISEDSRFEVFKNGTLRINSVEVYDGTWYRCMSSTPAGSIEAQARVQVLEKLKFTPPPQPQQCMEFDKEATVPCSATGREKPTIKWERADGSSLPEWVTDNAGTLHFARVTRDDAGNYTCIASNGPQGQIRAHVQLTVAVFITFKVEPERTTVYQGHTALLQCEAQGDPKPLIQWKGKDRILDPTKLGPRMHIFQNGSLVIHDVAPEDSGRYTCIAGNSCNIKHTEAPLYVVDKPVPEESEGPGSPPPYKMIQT

B1: humanized antibody 13C4 (antibody, V domains shown)
VH: QVQLVESGGGLVKPGGSLRLSCAASGFAFSTYDMFWIRQAPGKGLEWVSTISSGGGYTYYPGSVKGRFTISRDNAKNSLYLQMNSLRAEDTAVYYCVRPLLRDSYFYFDVWGQGTMVTVSS
VL: EIVMTQSPATLSVSPGERATLSCRASSSVSSSYLHWYQQKPGQAPRLLIFRTSNLASGIPARFSGSGSGTEYTLTISSLQSEDAAVYYCQQYSGYPLTFGQGTKLEIK
notes: Only variable regions are tied to 13C4; It was detected with anti-human Fc
B2: humanized antibody 2C5 (antibody, V domains shown)
VH: QVQLVQSGAEVKKPGASVKVSCKASGYTFTDYYINWVRQAPGQGLEWMGDINPYSGGPVYNQKFMARVTMTVDKSINTAYMELSRLRSDDTAVYYCARGDYYGSNYNYWGQGTLVTVSS
VL: EIVLTQSPATLSVSPGERATLSCRASQNIGTSIHWYQQKPGQAPRLLIKFASESISGIPARFSGSGSGTEFTLTISSLQSEDIAVYYCQQSNNWPYTFGQGTKLEIK
notes: Only variable regions are tied to 2C5; It was detected with anti-human Fc, so it has a human Fc
B3: humanized antibody 2C8 (antibody, V domains shown)
VH: QIQLVQSGAEVKKPGASVKVSCKASGYTFTTYGMSWVRQAPGQGLEWMGWINTHSGVPTYVDEFKGRVTMTLDTSTSTAYMELSSLRSEDTAVYYCARSPFDYGSRGAWFVYWGQGTTVTVSS
VL: DVVMTQSPDSLAVSLGERATINCRSSQSIVHNSGDTYLEWYQQKPGQPPKLLIYKVSNRFPGVPDRFSGSGSGTDFTLTISSLQAEDLAVYYCFQGSHVPWTFGGGTKVEIK
notes: Only variable regions are tied to 2C8 by name; It was detected with anti-human Fc

What follows are binders tested against T1, human PTK7 on the surface of … (assay: flow cytometry on MDA-MB-231 cells, PE anti-human Fc detection, MFI(PE)).

EC50 [nM]	Binder
0.828	B1
0.506	B2
0.423	B3

The binders below were run against T2, human PTK-7 recombinant protein (assay: ELISA, plate-coated human PTK7 protein, anti-human Fc-HRP detection).
Protocol: (§1) Binding specificity property was tested by ELISA according to a standard protocol. Specifically, 96-well micro-plates were coated with 2 μg/mL human, cynomolgus, mouse, and rat PTK-7 recombinant protein in PBS 100 μL per well, incubated overnight at 4° C. Plates were washed twice by TBS+0.5% Tween20. 200 μL of blocking buffer (2% BSA in PBS) was added to each well and incubated at 37° C. for 2 hours. Plates were washed using the buffer mentioned above. Serially diluted antibodies were added to the ELISA plate with 100 μL per well and incubated for 1 hour at room temperature. Then plates were washed for 3 times. After washing, HRP conjugated anti-human Fc antibody solution (abcam, ab98624, diluted with blocking buffer) was added to the plate with 100 μl per well. The plates were incubated at room temperature for 1 hour and then washed for 3 times. Then TMB solution was added to plates with 100 μl per well, placed at room temperature for 5-15 mins, then the stop solution (2M H₂SO₄) was added with 50 μl per well. Finally, the result was measured by absorbance at A₄₅₀ and A₆₃₀.

EC50 [nM]	Binder
0.022	B1
0.027	B2
0.032	B3

Each binder was assayed against T2, human PTK-7 recombinant protein (assay: ELISA, plate coated with 2 ug/mL human PTK-7 recombinant protein, HRP anti-human Fc detection, OD450).
Protocol: as §1

EC50 [nM]	Binder
0.0221	B1
0.0267	B2
0.0317	B3
